{"source": "paper PMC2172020", "biological_target": "HIS-CLIP-170 (rat) (UniProt Q9JK25)", "assay": "scanning force microscopy"}
{"substance": "HIS-CLIP-170 (from UniProt Q9JK25 1-1320) (natural protein)", "values": [{"measurement": "stoichiometry N", "value": 2}]}
